Tested on: Escherichia coli TOP10
Assay: shrunken log2 fold change of peptide-encoding DNA abundance (4.5 h post-induction vs induction); higher = less antimicrobial activity (less host growth inhibition)
Details: time post-induction: 4.5 h; library: site-saturation at positions 5, 18, 19, 20
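Note: peptides expressed intracellularly from a pBAD plasmid library in pooled LB shake-flask culture, induced with 0.3% L-arabinose, DNA abundance read by NGS, three biological replicates, DESeq2 with apeglm shrinkage.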

Row | Sequence | shrunken log2 fold change
1 | RRIRKRPPRLPRPRPRPRRVPRP | 0.569
2 | RRIRVRPPRLPRPRPRPHPFPRP | -0.0878
3 | RRIRERPPRLPRPRPRPKDGPRP | 0.0062
4 | RRIRHRPPRLPRPRPRPTGRPRP | -0.089
5 | RRIRARPPRLPRPRPRPALEPRP | 1.19
6 | RRIRARPPRLPRPRPRPIAMPRP | 0.207
7 | RRIRKRPPRLPRPRPRPSKWPRP | -0.119
8 | RRIRERPPRLPRPRPRPHSNPRP | -0.255
9 | RRIRRRPPRLPRPRPRPPFLPRP | 0.315
10 | RRIRPRPPRLPRPRPRPWNHPRP | -0.485
11 | RRIRERPPRLPRPRPRPTCTPRP | 0.199
12 | RRIRHRPPRLPRPRPRPSIAPRP | -0.0614
13 | RRIRARPPRLPRPRPRPSTKPRP | 0.076
14 | RRIRYRPPRLPRPRPRPAQHPRP | -0.515
15 | RRIRSRPPRLPRPRPRPPVIPRP | -0.0672
16 | RRIRYRPPRLPRPRPRPWVVPRP | -0.264
17 | RRIRTRPPRLPRPRPRPEWNPRP | -0.05
18 | RRIRHRPPRLPRPRPRPLVEPRP | -0.0289
19 | RRIRWRPPRLPRPRPRPWMLPRP | -0.0694
20 | RRIRHRPPRLPRPRPRPCCLPRP | -0.82
21 | RRIRRRPPRLPRPRPRPTTCPRP | 0.379
22 | RRIRPRPPRLPRPRPRPAELPRP | 0.335
23 | RRIRWRPPRLPRPRPRPNAAPRP | 0.81
24 | RRIRWRPPRLPRPRPRPTIDPRP | -0.0862
25 | RRIRDRPPRLPRPRPRPDRIPRP | -0.0411

Row | Sequence | shrunken log2 fold change
26 | RRIRYRPPRLPRPRPRPAGQPRP | 0.00356
27 | RRIRIRPPRLPRPRPRPTTLPRP | -0.506
28 | RRIRCRPPRLPRPRPRPCQGPRP | -0.0713
29 | RRIRGRPPRLPRPRPRPYHGPRP | -0.459
30 | RRIRPRPPRLPRPRPRPAYMPRP | -0.231
31 | RRIRARPPRLPRPRPRPDMKPRP | -0.0184
32 | RRIRYRPPRLPRPRPRPVSFPRP | -0.717
33 | RRIRKRPPRLPRPRPRPMPYPRP | -0.0398
34 | RRIRKRPPRLPRPRPRPHECPRP | 0.286
35 | RRIRVRPPRLPRPRPRPINSPRP | -0.022
36 | RRIRWRPPRLPRPRPRPRNHPRP | -0.141
37 | RRIRQRPPRLPRPRPRPYQMPRP | -0.00133
38 | RRIRWRPPRLPRPRPRPRPPPRP | 1.11
39 | RRIRRRPPRLPRPRPRPARNPRP | 3.18
40 | RRIRRRPPRLPRPRPRPWMTPRP | 0.0417
41 | RRIRNRPPRLPRPRPRPIIMPRP | -0.729
42 | RRIRDRPPRLPRPRPRPPRPPRP | 0.616
43 | RRIRKRPPRLPRPRPRPINSPRP | -0.395
44 | RRIRHRPPRLPRPRPRPMQYPRP | -0.104
45 | RRIRSRPPRLPRPRPRPAMWPRP | 0.0276
46 | RRIRTRPPRLPRPRPRPVWCPRP | -0.113
47 | RRIRHRPPRLPRPRPRPHIYPRP | -0.169
48 | RRIRGRPPRLPRPRPRPANLPRP | 0.166
49 | RRIRSRPPRLPRPRPRPKNWPRP | 0.176
50 | RRIRDRPPRLPRPRPRPDWSPRP | 0.147

Row | Sequence | shrunken log2 fold change
51 | RRIRRRPPRLPRPRPRPCAIPRP | 3.08
52 | RRIRMRPPRLPRPRPRPCGFPRP | 0.0233
53 | RRIRMRPPRLPRPRPRPPALPRP | 1.13
54 | RRIRARPPRLPRPRPRPHDSPRP | 0.037
55 | RRIRERPPRLPRPRPRPTWFPRP | 0.118
56 | RRIRVRPPRLPRPRPRPKGTPRP | -0.171
57 | RRIRWRPPRLPRPRPRPFRYPRP | -0.501
58 | RRIRARPPRLPRPRPRPFIYPRP | -0.264
59 | RRIRPRPPRLPRPRPRPPLEPRP | 0.179
60 | RRIRVRPPRLPRPRPRPACSPRP | -0.0142
61 | RRIRHRPPRLPRPRPRPSWVPRP | -0.0882
62 | RRIRARPPRLPRPRPRPWGHPRP | 0.0337
63 | RRIRARPPRLPRPRPRPDYHPRP | -0.879
64 | RRIRWRPPRLPRPRPRPPTSPRP | 0.291
65 | RRIRTRPPRLPRPRPRPNHKPRP | -0.443
66 | RRIRDRPPRLPRPRPRPSQTPRP | -0.244
67 | RRIRHRPPRLPRPRPRPVQLPRP | -0.0712
68 | RRIRPRPPRLPRPRPRPRMGPRP | 0.38
69 | RRIRVRPPRLPRPRPRPNTQPRP | -0.0658
70 | RRIRYRPPRLPRPRPRPEFWPRP | -0.0503
71 | RRIRARPPRLPRPRPRPGNKPRP | -0.186
72 | RRIRNRPPRLPRPRPRPMTKPRP | 0.116
73 | RRIRLRPPRLPRPRPRPELCPRP | 0.173
74 | RRIRRRPPRLPRPRPRPVNIPRP | -0.142
75 | RRIRTRPPRLPRPRPRPKNAPRP | 0.0264

Row | Sequence | shrunken log2 fold change
76 | RRIRVRPPRLPRPRPRPHRTPRP | -0.16
77 | RRIRYRPPRLPRPRPRPLVKPRP | -1.45
78 | RRIRYRPPRLPRPRPRPQARPRP | -0.0547
79 | RRIRHRPPRLPRPRPRPIKHPRP | -0.341
80 | RRIRDRPPRLPRPRPRPHTEPRP | -0.0337
81 | RRIRIRPPRLPRPRPRPDPKPRP | -0.183
82 | RRIRCRPPRLPRPRPRPFLHPRP | -0.703
83 | RRIRYRPPRLPRPRPRPNWHPRP | -0.575
84 | RRIRYRPPRLPRPRPRPVWIPRP | -1.23
85 | RRIRQRPPRLPRPRPRPNMPPRP | -0.634
86 | RRIRVRPPRLPRPRPRPVQYPRP | -0.0224
87 | RRIRARPPRLPRPRPRPNMYPRP | -0.38
88 | RRIRTRPPRLPRPRPRPAQQPRP | 0.233
89 | RRIRFRPPRLPRPRPRPCGHPRP | -0.129
90 | RRIRCRPPRLPRPRPRPACGPRP | 0.323
91 | RRIRLRPPRLPRPRPRPNNWPRP | -0.275
92 | RRIRLRPPRLPRPRPRPMSFPRP | -0.284
93 | RRIRNRPPRLPRPRPRPFMYPRP | -0.247
94 | RRIRSRPPRLPRPRPRPPPEPRP | 0.852
95 | RRIRTRPPRLPRPRPRPYQNPRP | -0.3
96 | RRIRLRPPRLPRPRPRPVEEPRP | 0.21
97 | RRIRQRPPRLPRPRPRPTRAPRP | 0.647
98 | RRIRVRPPRLPRPRPRPFLFPRP | -0.205
99 | RRIRLRPPRLPRPRPRPQWQPRP | 0.0949
100 | RRIRSRPPRLPRPRPRPHPPPRP | 0.436

Row | Sequence | shrunken log2 fold change
101 | RRIRERPPRLPRPRPRPHKCPRP | 0.0924
102 | RRIRARPPRLPRPRPRPQLCPRP | 0.249
103 | RRIRCRPPRLPRPRPRPSEQPRP | -0.0681
104 | RRIRLRPPRLPRPRPRPCYQPRP | -0.476
105 | RRIRDRPPRLPRPRPRPQNKPRP | -0.475
106 | RRIRDRPPRLPRPRPRPHKNPRP | -0.296
107 | RRIRDRPPRLPRPRPRPPHMPRP | 1.51
108 | RRIRSRPPRLPRPRPRPQWHPRP | -0.26
109 | RRIRARPPRLPRPRPRPVQCPRP | 0.22
110 | RRIRQRPPRLPRPRPRPRRSPRP | -0.0497
111 | RRIRCRPPRLPRPRPRPFAAPRP | 0.308
112 | RRIRLRPPRLPRPRPRPSGRPRP | 0.448
113 | RRIRTRPPRLPRPRPRPHRSPRP | 0.0963
114 | RRIRFRPPRLPRPRPRPKDRPRP | 0.148
115 | RRIRERPPRLPRPRPRPFCLPRP | -0.558
116 | RRIRFRPPRLPRPRPRPWGDPRP | 0.00532
117 | RRIRWRPPRLPRPRPRPSDSPRP | -0.0671
118 | RRIRFRPPRLPRPRPRPGVEPRP | 0.112
119 | RRIRTRPPRLPRPRPRPTVVPRP | 0.0732
120 | RRIRVRPPRLPRPRPRPGLYPRP | -0.384
121 | RRIRGRPPRLPRPRPRPHWDPRP | 0.645
122 | RRIRVRPPRLPRPRPRPDFIPRP | -0.396
123 | RRIRARPPRLPRPRPRPMVAPRP | 0.676
124 | RRIRSRPPRLPRPRPRPCCQPRP | 0.0545
125 | RRIRERPPRLPRPRPRPIGPPRP | -0.138

Row | Sequence | shrunken log2 fold change
126 | RRIRMRPPRLPRPRPRPCDGPRP | 0.0158
127 | RRIRYRPPRLPRPRPRPMNWPRP | -0.463
128 | RRIRIRPPRLPRPRPRPTLTPRP | -0.13
129 | RRIRPRPPRLPRPRPRPYYWPRP | -0.0723
130 | RRIRPRPPRLPRPRPRPIETPRP | 0.0267
131 | RRIRGRPPRLPRPRPRPLHWPRP | 0.627
132 | RRIRNRPPRLPRPRPRPRAPPRP | 0.972
133 | RRIRERPPRLPRPRPRPAHFPRP | 0.0793
134 | RRIRQRPPRLPRPRPRPYPIPRP | -0.00931
135 | RRIRARPPRLPRPRPRPLQMPRP | 0.629
136 | RRIRRRPPRLPRPRPRPYLFPRP | -0.305
137 | RRIRHRPPRLPRPRPRPFWCPRP | -0.3
138 | RRIRYRPPRLPRPRPRPTYWPRP | -0.318
139 | RRIRIRPPRLPRPRPRPFAFPRP | -0.155
140 | RRIRHRPPRLPRPRPRPLCFPRP | -0.243
141 | RRIRQRPPRLPRPRPRPAWRPRP | 0.497
142 | RRIRLRPPRLPRPRPRPHYDPRP | -0.0502
143 | RRIRHRPPRLPRPRPRPPHVPRP | 0.16
144 | RRIRWRPPRLPRPRPRPFAWPRP | 0.179
145 | RRIRQRPPRLPRPRPRPDGPPRP | 0.0029
146 | RRIRFRPPRLPRPRPRPLIDPRP | -0.227
147 | RRIRCRPPRLPRPRPRPFYLPRP | -0.564
148 | RRIRARPPRLPRPRPRPEVWPRP | 1.43
149 | RRIRGRPPRLPRPRPRPKGAPRP | 1.06
150 | RRIRRRPPRLPRPRPRPCNDPRP | -0.0872

Reference: the supplement of paper PMC9112550, “Optimization of the antimicrobial peptide Bac7 by deep mutational scanning” (BMC Biology, 2022)
